Experimental data: a protein production outcome set (Wang et al. 2014)

Assay: label from the status in PepcDB records
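Note: failed if final PepcDB status was selected cloned or expressed and not failed if soluble or beyond.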

Sequence | protein production
MPTLIVLIGPTGVGKTELSLRLAENFHTSIVSADSRQLYAELKIGTAAPTPDQLKRVPHYLVGTLHLTDYYSAAQYEQEAMEILHQLFTEHEVVVLTGGSMMYVDAICKGIDDIPTVDAETRQVMLQKYEEEGLEQLCAELRLLDPDYYRIVDLKNPKRVIHALEICYMTGKTYTSFRTQQKKERPFRILKIGLTRDREELYDRINRRVDQMMEEGLLDEVRSVLSYRHLNSLNTVGYKELFKYLDGEWELPFAIEKIKQNSRIYSRKQMTWFKRDEEIRWFHPEQETEILEYLRLQNLTHLPSLDTFLEHHHHHH | not failed
MPTLKSYFLKDTSLRTEILAGATTFLTMVYIVFVNPKVLHDAGMDQGAVFTATCLITAFACALTGFIANTPIGVAPSVALNIYFSYSVVQGMGVDWQHALAMVFISGLLFLFLTLTKLRRLLVEAIPHNLQIAIVIGISLLIALIALENNQIIIGDQHNLMRLGSIIRPETGLFFLGFILILTLDYHKIPGAIIIGILSISVLSLILGLTSWQGLIAMPPSLEPTFLQLDFSGLSSIVALKTIFTFFLITVFDATGSLIGLLSPTIFKHEKNYYKRLTRSLTADAAASSLAGLMGSASTSPYIESATGIEAGGRTGLTALVIATGFILMLFLFPLAKMIPSFAVGPALLYVACCMIKHITNMKLQDITETAPCMVIIMMVPFTASIADGIGLGIILYTLLKLFTRQKPNPLIIVLSLVFTVFFLIN | failed
MPTPAPSADSTAERRHREKDTPLHRAARRGDADAVRELLARGAEIDALDDKGRTPYRLALDAGHPEIARWLAAAGADRHRSAAGTPGESEKRPRHPPSRLSSKDGIDGYPGWPALTVAAWRGHASTVETLLARGADVAARAPDGHTPLTRAAWNGHAGIVKILLAHGAEADVATPDGRTALMWAAREGHGEVVAVLAAAGARLDATDGDGNTALSWAAQRGKATTVRVLCSLGAATGVARKDGRTPIMLAALGGHPESVEVLLAASADPNATDADGHTALWHAVDGGHSGIVEILLAHGASFDRDRAPGHDALARAAWKGDEKTAGLLLAYGARVDAPSGDGNTALAVAAGRGHAGVIRLLLRKGANPDRRNRRNMTALMLAAQAGHSETVAALLEAGADPTLRNRHRHTAVSLARAGGHEDCVKILEKHRVGRRTLLGFLW | failed
MPTPGTGSVPELQLVPFQLGHFPILQRWFATEKELVQWAGPALRHPLSLEQMHEDLAESRRRPPLRLLWSACRDDQVIGHCQLLFDRRNGVVRLARIVLAPSARGQGLGLPMLEALLAEAFADADIERVELNVYDWNAAARHLYRRAGFREEGLRRSATRVGRERWNVVLMGLLRQEWAAGGAGND | not failed
MPTPRPEPAAPPGNNQAGPPAGGPIISPTDLIAIQPPRAVAGDFVPDEVLVTVDGDAGAVQQIAASFGLEVRSQRQSRLLGTTLVRFGIPDGRPVGVVLAQLAADGRTQRREPNHIYSLQQAAGIVNYAFDRIALDAKQASGENIRVAVIDTGIDDTNPALAGVIAAQFDAMPGVPVEKRDHGTSIDGLIAGVGALEGMAPGARIYHARAFEGGKSTMDVILSALDWAAEQNVSIINMSFVGPKNDLLGAACRNARALGMVLVAAAGNNGPKAPYGYPAAFDGVIAVTATDAKDALMPQANRGAYVFISAPGVEMVAPSGAGSDVVTGTSFAAAIVSGAIANLLHASPGRTADDIEKALAATAKDLGPKGRDNDFGYGLLDIKAAEAAKE | failed
MPVSIFMTVVNKSGVLARVTAEIAKADSNIDDITLENDKDYTTMRFILQTRDRQHLAQIFRRLKHIDEIVKMGRIKNLLEHHHHHH | not failed
MPVVDIDPDELRRLTGHRSKDDDELRQDLFGLGIEYEGETEDGDFKLEFEADRLDRLSVEGIARSLRYHAGDDRGVDIPDTNAPEWAIDVTDVPADRPYVTGAVIRGVDLDADALDSLIQLQEKLHATMGRKRAKGAIGIHDLAMLKGDTVDGDGTAARSLTYTGIDPDGDTFVPLDDDAERTPADVLTEHPTGETYADLLADHDTYPAIYDDIGLFSFPPVINGRRTEVTTDSRELFVELTGTDQWTIDRMCAIICYALDARGATIEDVTVDYPDRELHRPDFAVRTKHVSHDRIETLLGVEFTTEAVVDLAERAGLDATPTDDGYDVEIPPYRVDVRHPVDVVDDLGRAYDFNDLTPRYPDVNTIGGRTESSRLERSVRQALVGLGFEDLLNFNMTSEAENFDRMRLTPDHDAVGAAQPATIAEPYSQDFTILRTWALPSLAMVLETNTHHAYPQDLAEVGFAAHADGDTQTGVAERRTVAAVLARNDASYEDAKARLQALCDEFAVALETPPTTHPSFIDGRAATIEIDGQPAGVIGELHPGVIVEHDVEVPVAGFEFELDALR | failed
MPWQQQPIRYSADLEKPSPREQADIEKIMAKLLKNNERAYDKYKHGLRDAHAKSHAILRGELIVNEGLPPELAQGLFAEPRTYPVIARLSSTSGVRRSDKTRGVRGLGLKVLGVQGEKILPDDSSTNQDFVMVTHEDFLFADAHAYAGLGMITASLLARLSDQALWLGSGLLDLVSKAGIKLPDNLMVFVAPNRPILGLEFFSSAPFRHGDHVAKYRFAPASENVKALSGQLLPRNPAPEQHRDMIAEFFADQTAEFDFSAQLCTDPVAMPIEDAGKNWDKSISPYVSVAKIVFGPQNPYSALRRAYGDDVLAFNSWRGLAEHRPLGSINRLKKTVYESSADYRHRVNRIDRHEPLEHHHHHH | failed
MPYDTSNNTLIVSTRNHQDDDETAIVDDLQRLVNYQISDGGNINHQYFQIAQQFHHTQQQNANANALQLVAAATTATTLMPQTQAALAMNMIPAGTIPNNALWDMWNPIVPDGNRDHYTNIPFK | failed
MPYFYVFLLLLTSLLWGGNFVVGKSLVDHASPMTLTNLRWMIAIVCLLPMVWFKEKKILPPRTAILPLILMGISGVALFNIFQFLALEKTSATNVGLISTLNAISIALFSVLFLKEKVNTLQILSMILSFFGVILVLLKGDFSLLFSLHFNSGDLWMIAAVCIWGIYSVCSKWATKTTTPLMATLYSGIFGVILLLPFNIGSFTVSNINTSFITSLLYTGLISTVLCMVFWNIGVQKLGATTSGIFLNFNPIFTAILAFIFLGEELTWIQILGTIVVVTGCYLFSHFKTVAVQPVRPLMRKHS | failed
MPYKNILTLISVNNDNFENYFRKIFLDVRSSGSKKTTINVFTEIQYQELVTLIREALLENIDIGYELFLWKKNEVDIFLKNLEKSEVDGLLVYCDDENKVFMSKIVDNLPTAIKRNLIKDFCRKLS | not failed
MPYLLLTLAALFWGGNYVVGHVLVQGVDPILMTEARWALTALLLGLLYRRQIAGSRRLLRANAPAVVVLTLCGQVSFPLTLYIGLQTTSALNAAIYMSATPSMVLLINRLFFRDPVSGRNWLGVAFSTLGVMILLFQGNPLHAASLHTFAIGDLWAMGSALSWALYCSLLRLKDRRIPANGFVAVSSLLGALILVPIVIFWLMRHPAQDWAAWREPFFLSGLAYLVIFPSWLAYLFWNKGIATIGATRGEIYTHIIPLSGGVLSILFLHTQPHAWHLFSALFIMVGIGICSLEKRQAASIRLRD | failed
MQALTTYKCIEKGIVVWLTGLPGSGKTTIATRLADLLQKEGYRVEVLDGDWARTTVSEGAGFTREERLRHLKRIAWIARLLARNGVIVICSFVSPYKQARNMVRRIVEEEGIPFLEIYVKASLEEVIRRDPKGLYKKALKGELENFTGITDPYEPPENPQLVLDTESNTIEHNVSYLYSLVKAVIE | not failed
MQAVALENDVIRRFASGQMFPMAKLVLETAFQPIVEATTGTIFGYESLMRGHDRLGFSSPLALLDQAAADGELKAFEQMLASRALAKFSTLPDFSSATLFLNLDVRLIPHGDVILDKLVGHLARAGIPASSICFELSERFDNTSVPEFTSLIARMRKEGFKLAIDDFGAGHGEMKLLCDFPLDYLKIDRHFISGIDHLPRKQHLVRNIVNIAHVLGVRVIAEGIETEAEFLSCREFGVDLVQGWLIAKPTVFTSELPESFPHLNRVGVARRNSQTLDEILIRREIERLPTVFEHDSVDSVFELFRRNPQQAFFPVLNANGEPRGVINEYHLKEYIYRPFGRDLLKNKIYERTISHFVDPAPIVGLDADADQLMNMFASMGGMGGSACIILTENMRYAGIVSAASLIKVINEKQLKMAQDQNPLTALPGNRAIGGFIADSCSDGDETRFFCYCDFDNFKPFNDKYGFNAGDHAITLFSALMRRYFFAGDCFLGHIGGDDFFIGVRDWSVEELMEILERLLSDFHDDVAGLYSDEDRAAGCMKGQDRNGNERDFALLRCSIGVLTLPKGSIIANPERIGSEIASVKAAAKENEGGLVVRVFGEANLEHHHHHH | failed
MQDAFEVALPLFLIMDPVGNAAASLAILREHTPSRQRAIIRRELVFALAIVLLFHFLGDALLGLLDIEQSTLRLSGGIILFIIAMKMVFPPAQENDPEAVTRDPFIVPIAVPLIAGPSLLAAVMVYARQAQAGMMGQASVLGGVLMAWGATALIMAFTPDLARILGPRAMRAMERLMGLILILMAVQMLENGIRIFVQSL | failed
MQDFKKLPTVLTAEELIDKIFRRAARVEGRNPKEKALNKLATISNVSRDYFGKIIGAHPSYENLPDFYREMVDVVVGIRQLKKSLVALKWADGMIQKVVSRAVREVKGGKNPSAVVKSAYGRVASIIEQIDDELRFLNDAKNRMREIPILQDLPTIVVAGYPNVGKSSLVARISTVKPEVASYPFTTKKINLGFAEFAGKRVQIIDTPGLLDRPLSKRNRIERRAVLALKHLADIILFVIDPTETCGYSLEKQLSLLEEIKGYFAKPTVEVYSKADMHDRRDRQAYSAVTGEGIDELIKEIEKMVKIHSQTSTVIAPSGQTSTQEQHSLEHHHHHH | failed
MQDIHFRRHYVRHLPKEVSQNDIIKALASPLINDGMVVSDFADHVITREQNFPTGLPVEPVGVAIPHTDHKYVRQNAISVGILAEPVNFEDMGGEPDPVPVRVVFMLALGESNKQLNVLGWIMDVIQDEDFMQQLLVMNDDEIYQSIYTRISERGEV | not failed
MQDNNGPCRNFYQLVFEEGKFMPRAFLSHSSADKKSYVEMVAKKLGYNTCVYDEFSFEEGMKSAEEIMKGLSRSDLFVLFLSDSALESNWVKNELNTAQELLNTGDMKRILPIIIDKNITYKDNRIPQWLRDEYNLKYVSRPTVAARRITQKLREISWEQHPRLKEKDQIFVGRNNLTKTFEERIDAFDLQTPTCIFASGIRKIGRRTLLKNCLTKSNVVDDSYQPPIITLNSHEGLEDFIIRIYDLGFSGEFNLSDFMTTEIDHKIGIATELIRDIQVAKEILFILDNGCIITPDREINQWFLQILSHLPNQDRVTFGIASSFRLDKKYIRTRNNIFYIEVPELDKVEREGLLKRYSKFEKLELQPDELKFFGDLLNGYPEQVYYAVDLIKDLGIFQAKKDSYLIQEFNTERVNILMNKYDNNQKSKDFLYFLSEFEFVDYDFIFEIVGDEEFYINLLNELLASAICEHLGANKEYIRINDIIRDFVKRNNLSLPKEYKDKLEDHLNNFLSNYQKEEKSAADLLYSMKEALIQGKSIDEKYLIPSQFLKTMTELYDRHKRYGEIVKLADRVLQNEEYMDHRITEEIRYYLCLALARQKDSRFLQEVQKIDGANHDFLFGFFFRITGNYRKAIERLETAIEKRPHFSFAERELVNVYLLIEDFERALTLAKQNYERDKNNPYHIQAYFRCLIAEDKINGNEEKMEELLDNLNKLKTEKAKQMYMRAKAQYLAFHKDDEIGALELADLATKTYSHDIYCWFTKFDICEKYDKIDEMGNILKVLDKMIDKNSSFYSILINLKALYLAKSDQKPEALKLVFSLNNYPENALDKIIKRIESTKIPRMNKRSIKI | failed
MQDSFFSFLSSPINLLFLFVAFFLLFVTPWLWNIVNSAHNIHKLLDPLGIKKKENSLPVTGLLFLPLLLIIIFIEWFWPLANITLFPILASPYIKFNIIAVISVVILLILIQCDKKKSMELWVLAYAAVLYLLYLIIIMATVVVGMNAFPASHYIFAPESSMTINRTIIYGLLIAHLIFIWLTISLKFTWRLLLMILYTLALSFAYFSLIVS | failed
MQEQVSNVRARIYKPAKSTMQSGHSKLKAWKLEFEPSCTQYTEPLMNWTGSHDTKQQVCLSFTTRELAIAYAVAHKIDYTVLQDNPRTIVPKSYADNFTKPRDM | not failed
